# What was measured:
# [1] = molecular target: native cell surface receptor on R-SMC; experiment: cell-based or functional assay
# [2] = molecular target: T1, human αvβ3 receptor protein purified from human placenta (human, UniProt P06756 31-1048; P05106 27-788); experiment: BIAcore, receptor immobilized in a hybrid bilayer membrane, mAb in solution
# T1 construct: mature; Detergent-solubilised whole heterodimer from tissue; coated on plates (ELISA), inserted in a hybrid bilayer membrane or passed in solution (BIAcore); also called vitronectin receptor; αβ3 receptor
# Procedure: (§1) The receptors was immobilized by inserting it into a phospholipid vesicle and producing a hybrid bilayer membrane on a hydrophobic sensor surface. […] Samples of the mAb were passed over this surface and the rates at which they bound and then dissociated from the surface were measured and analyzed using software provided with the instrument.
# [3] = molecular target: T1, human αvβ3 receptor protein purified …; experiment: BIAcore, receptor immobilized in a hybrid bilayer membrane, mAb in solution (100, 25, 6 nM)
# Procedure: as §1
# [4] = molecular target: T2, human αvβ5 receptor protein purified from human placenta (human, UniProt P06756 31-1048; P18084 24-799); experiment: as above
# T2 construct: mature; Detergent-solubilised whole heterodimer from tissue
# T2 sequence (P06756 31-1048, form in doubt, chain 1 of 2): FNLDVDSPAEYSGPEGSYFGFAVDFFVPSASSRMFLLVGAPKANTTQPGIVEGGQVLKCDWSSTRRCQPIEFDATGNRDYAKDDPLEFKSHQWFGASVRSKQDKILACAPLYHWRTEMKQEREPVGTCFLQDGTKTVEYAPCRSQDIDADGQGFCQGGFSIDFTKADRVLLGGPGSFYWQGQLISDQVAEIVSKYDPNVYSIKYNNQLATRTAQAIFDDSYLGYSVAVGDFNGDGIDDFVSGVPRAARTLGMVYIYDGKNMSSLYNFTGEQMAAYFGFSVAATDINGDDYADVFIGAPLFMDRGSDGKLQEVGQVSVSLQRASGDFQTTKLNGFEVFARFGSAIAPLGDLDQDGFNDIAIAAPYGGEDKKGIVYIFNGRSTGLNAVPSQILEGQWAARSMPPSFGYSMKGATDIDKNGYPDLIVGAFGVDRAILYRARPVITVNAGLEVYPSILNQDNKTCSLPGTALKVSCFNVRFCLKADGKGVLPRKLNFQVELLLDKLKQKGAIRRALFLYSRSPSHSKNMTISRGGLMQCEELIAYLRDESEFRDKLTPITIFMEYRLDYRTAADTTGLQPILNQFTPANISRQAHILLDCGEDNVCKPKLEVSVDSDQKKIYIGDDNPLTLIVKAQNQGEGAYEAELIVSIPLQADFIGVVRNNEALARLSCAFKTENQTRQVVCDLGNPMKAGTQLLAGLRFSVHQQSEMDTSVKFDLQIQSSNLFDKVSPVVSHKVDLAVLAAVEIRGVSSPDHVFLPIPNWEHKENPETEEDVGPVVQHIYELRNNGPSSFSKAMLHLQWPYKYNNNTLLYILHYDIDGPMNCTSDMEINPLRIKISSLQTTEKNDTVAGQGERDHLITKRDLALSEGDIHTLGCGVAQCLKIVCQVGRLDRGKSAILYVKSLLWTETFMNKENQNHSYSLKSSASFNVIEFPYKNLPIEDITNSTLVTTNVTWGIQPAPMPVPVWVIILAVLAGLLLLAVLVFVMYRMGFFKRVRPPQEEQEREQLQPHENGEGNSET
# T2 sequence (P18084 24-799, form in doubt, chain 2 of 2): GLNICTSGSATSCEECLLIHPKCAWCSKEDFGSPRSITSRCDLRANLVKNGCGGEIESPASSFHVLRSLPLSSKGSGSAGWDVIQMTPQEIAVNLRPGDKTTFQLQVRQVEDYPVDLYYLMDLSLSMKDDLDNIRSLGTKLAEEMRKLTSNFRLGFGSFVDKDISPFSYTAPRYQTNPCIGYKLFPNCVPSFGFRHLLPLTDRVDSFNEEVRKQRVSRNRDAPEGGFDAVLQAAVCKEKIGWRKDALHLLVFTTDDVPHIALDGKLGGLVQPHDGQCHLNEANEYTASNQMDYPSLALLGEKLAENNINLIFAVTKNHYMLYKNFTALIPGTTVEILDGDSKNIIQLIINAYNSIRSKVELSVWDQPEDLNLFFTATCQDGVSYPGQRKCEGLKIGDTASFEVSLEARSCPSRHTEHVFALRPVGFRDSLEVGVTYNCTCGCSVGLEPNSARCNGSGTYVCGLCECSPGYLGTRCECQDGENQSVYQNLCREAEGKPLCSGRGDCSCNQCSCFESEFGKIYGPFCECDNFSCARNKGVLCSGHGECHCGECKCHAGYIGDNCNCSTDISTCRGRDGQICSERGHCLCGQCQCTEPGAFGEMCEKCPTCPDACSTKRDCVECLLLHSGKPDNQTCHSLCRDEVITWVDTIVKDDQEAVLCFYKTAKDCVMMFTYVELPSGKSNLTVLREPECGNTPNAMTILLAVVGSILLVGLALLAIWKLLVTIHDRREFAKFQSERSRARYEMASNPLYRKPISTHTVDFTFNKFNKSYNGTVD
# Procedure: as §1
# T1 sequence (P06756 31-1048, form in doubt, chain 1 of 2): as the sequence (P06756 31-1048, form in doubt, chain 1 of 2) above
# T1 sequence (P05106 27-788, form in doubt, chain 2 of 2): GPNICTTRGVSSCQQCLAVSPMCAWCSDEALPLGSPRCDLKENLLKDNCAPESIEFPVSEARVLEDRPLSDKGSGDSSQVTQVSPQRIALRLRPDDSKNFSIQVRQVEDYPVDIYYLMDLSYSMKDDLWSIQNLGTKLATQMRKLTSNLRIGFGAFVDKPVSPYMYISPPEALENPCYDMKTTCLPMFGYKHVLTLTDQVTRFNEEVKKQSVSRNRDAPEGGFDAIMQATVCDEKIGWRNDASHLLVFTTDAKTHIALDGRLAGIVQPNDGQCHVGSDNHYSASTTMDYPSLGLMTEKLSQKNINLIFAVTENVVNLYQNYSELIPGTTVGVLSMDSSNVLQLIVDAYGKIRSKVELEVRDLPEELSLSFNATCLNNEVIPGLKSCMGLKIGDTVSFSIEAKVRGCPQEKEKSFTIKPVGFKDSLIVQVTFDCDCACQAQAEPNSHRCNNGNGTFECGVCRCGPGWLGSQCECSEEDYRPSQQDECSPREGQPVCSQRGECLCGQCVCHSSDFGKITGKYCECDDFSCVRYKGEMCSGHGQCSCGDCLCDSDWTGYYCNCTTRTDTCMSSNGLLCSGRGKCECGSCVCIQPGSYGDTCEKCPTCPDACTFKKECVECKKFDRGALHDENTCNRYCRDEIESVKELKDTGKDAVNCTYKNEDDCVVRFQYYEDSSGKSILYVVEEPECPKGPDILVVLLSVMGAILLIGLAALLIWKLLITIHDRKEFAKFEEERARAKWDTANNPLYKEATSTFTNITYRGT
Inhib (%) R-SMC (50 µg/ml) [1] [%],fold higher binding affinity (KD) than D12 [2] [fold],Kd [3] [nM],Kd [4] [nM],Molecule
43,,,,murine monoclonal antibody LM609
,~5,0.29,0.11,"murine monoclonal antibody B9 (antibody, mouse IgG1, V domains shown, also called mAb B9; Murine B9) VH: QVQLQQSGAELMKPGASVKISCKATGYTFSSYWIEWVKQRPGHGLEWIGEILPRSGNTNYNEKFKGKATFTAETSSNTAYMQLSSLTPEDSAVYYCSSRGVRGSMDYWGQGTSVTVSS VL: DIQMTQTTSSLSASLGDRVTITCRSSQDISNFLNWYQQKPDGTVKLLIYYTSTLHSGVPSRFSGSGSGTDYSLTISNLEQEDIATYFCQQGNTLPWTFGGGTNLEIKR"
66,,1.3,,"murine monoclonal antibody D12 (antibody, V domains shown) VH: EIQLQQSGPEVVKPGASVKVSCKASGYAFTSYNMYWVKQSHGKSLEWIGYIDPYNGDTFYNQKFKGKATLTVDKSSSTAYMHLNSLTSEDSAVFYCARQNYGSFAYWGQGTLVTVSA VL: DIVLTQSPATLSVTPGDSVSLSCRASQSISNHLHWYQQRSHESPRLLIKYASQSISGIPSRFRGSGSGTDFTLNINILETEDFGMYFCQQSNSWPFTFGSGTNLEIKR"
